Source: patent publication US20140249468A1 (UNITED STATES OF AMERICA AS REPRESENTED BY THE SECRETARY …, published 2014)
Square brackets hold non-standard residues; d marks the D form. Ends that are not written are not given here.

T1: APMA-activated recombinant human MMP-2 (human, UniProt P08253 110-660, limits assumed)
T1 sequence (looked up): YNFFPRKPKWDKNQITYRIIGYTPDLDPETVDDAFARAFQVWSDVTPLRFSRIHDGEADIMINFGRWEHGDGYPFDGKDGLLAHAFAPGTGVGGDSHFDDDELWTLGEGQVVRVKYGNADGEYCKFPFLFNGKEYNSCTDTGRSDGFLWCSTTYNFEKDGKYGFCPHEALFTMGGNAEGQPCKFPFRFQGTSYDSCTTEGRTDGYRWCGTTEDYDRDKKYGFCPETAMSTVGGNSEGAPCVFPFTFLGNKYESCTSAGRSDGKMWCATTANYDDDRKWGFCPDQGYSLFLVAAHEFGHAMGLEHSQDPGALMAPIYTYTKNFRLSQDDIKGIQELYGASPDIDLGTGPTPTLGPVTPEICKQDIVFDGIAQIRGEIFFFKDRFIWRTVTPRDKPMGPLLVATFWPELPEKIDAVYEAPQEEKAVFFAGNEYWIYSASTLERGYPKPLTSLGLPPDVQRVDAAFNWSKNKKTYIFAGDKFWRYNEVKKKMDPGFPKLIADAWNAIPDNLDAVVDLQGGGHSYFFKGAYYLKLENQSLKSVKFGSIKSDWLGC

B1: compound 7 (peptide)
peptide: cyclo(RGD[dY]K(CW800))
notes: Made by conjugating CW800 NHS ester to c(RGDyK); also called CW800-labelled c(RGDyK)
B2: compound 4 (MMP-P-RGD) (peptide)
peptide 1: {Cy5.5}-GPLGVRGK(BHQ‑3)GG
peptide 2: RGDYK
modifications: not fully specified (some residues); also: chain 1 C-terminal carboxyl conjugated to chain 2, c(RGDyK), linkage site not given here, head-to-tail to a chain's N/C-terminus

Assays:
[1] = target: T2, ανβ3 integrin receptor on U87MG human glioma cells (human, UniProt P06756 31-1048; P05106 27-788); experiment: competitive cell-binding assay on U87MG cells, displacement of 125I-echistatin
T2 construct: whole, on cells; Endogenous receptor on U87MG cells; also called ανβ3 receptor
Method: Briefly, the U87MG cell line was cultured in DMEM medium containing 10% (v/v) fetal bovine serum supplemented with penicillin (100 μg/ml), streptomycin (100 μg/ml), non-essential amino acids (100 mM) and sodium pyruvate (1 mM) at 37° C. with 5% CO₂. […] After incubation, the plate was washed three times with PBS containing 0.1% BSA, and the radioactivity was measured by γ-counting. The IC₅₀ values were calculated by nonlinear regression analysis.

[2] = target: T1, APMA-activated recombinant human MMP-2; experiment: cell-based or functional assay

T2 sequence (P06756 31-1048, chain 1 of 2): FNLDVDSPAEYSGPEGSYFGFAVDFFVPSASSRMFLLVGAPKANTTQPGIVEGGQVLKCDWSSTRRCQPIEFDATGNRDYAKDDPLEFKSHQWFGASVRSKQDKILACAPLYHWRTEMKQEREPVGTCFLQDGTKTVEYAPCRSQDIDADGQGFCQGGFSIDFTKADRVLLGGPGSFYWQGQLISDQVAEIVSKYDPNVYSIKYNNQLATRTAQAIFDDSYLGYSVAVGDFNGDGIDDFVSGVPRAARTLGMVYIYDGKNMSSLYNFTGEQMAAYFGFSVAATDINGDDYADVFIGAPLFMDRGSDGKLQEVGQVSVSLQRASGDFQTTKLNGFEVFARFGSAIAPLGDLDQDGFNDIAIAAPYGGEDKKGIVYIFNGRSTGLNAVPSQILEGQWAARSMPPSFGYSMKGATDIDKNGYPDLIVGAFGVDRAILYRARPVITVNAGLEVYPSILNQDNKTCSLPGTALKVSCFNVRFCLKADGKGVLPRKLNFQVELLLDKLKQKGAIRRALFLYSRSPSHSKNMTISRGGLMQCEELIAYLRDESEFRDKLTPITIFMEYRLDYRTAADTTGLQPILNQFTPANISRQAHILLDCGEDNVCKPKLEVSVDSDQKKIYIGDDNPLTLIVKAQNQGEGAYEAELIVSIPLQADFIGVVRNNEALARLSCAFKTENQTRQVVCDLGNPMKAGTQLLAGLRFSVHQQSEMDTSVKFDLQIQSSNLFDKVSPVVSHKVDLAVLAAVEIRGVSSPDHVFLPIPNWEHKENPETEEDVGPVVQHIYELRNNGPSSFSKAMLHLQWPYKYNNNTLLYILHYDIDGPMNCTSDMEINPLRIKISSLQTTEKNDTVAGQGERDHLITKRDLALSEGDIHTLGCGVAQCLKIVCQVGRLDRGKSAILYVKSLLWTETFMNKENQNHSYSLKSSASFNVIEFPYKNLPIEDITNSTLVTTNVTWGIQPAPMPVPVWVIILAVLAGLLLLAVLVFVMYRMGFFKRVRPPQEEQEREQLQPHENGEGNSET
T2 sequence (P05106 27-788, chain 2 of 2): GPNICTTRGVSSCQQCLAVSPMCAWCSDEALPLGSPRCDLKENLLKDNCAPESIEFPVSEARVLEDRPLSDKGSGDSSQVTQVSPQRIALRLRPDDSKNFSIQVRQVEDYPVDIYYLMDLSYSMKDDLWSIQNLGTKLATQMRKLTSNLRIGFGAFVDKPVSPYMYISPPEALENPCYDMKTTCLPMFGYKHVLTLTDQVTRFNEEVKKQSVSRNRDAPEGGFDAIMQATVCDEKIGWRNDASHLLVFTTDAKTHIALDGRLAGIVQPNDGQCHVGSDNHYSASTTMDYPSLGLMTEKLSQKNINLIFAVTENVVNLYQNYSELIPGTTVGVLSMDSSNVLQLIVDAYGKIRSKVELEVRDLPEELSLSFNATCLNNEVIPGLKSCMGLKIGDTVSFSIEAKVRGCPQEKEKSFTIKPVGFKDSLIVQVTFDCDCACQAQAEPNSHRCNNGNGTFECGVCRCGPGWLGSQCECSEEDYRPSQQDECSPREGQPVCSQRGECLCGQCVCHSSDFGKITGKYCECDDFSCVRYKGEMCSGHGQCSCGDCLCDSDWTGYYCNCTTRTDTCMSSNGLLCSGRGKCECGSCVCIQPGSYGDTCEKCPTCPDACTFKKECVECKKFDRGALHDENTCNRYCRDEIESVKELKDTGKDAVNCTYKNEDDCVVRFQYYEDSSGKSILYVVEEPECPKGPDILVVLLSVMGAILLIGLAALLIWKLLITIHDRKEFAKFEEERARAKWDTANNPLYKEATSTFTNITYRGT

Row | Binder | IC50 [1] [nM] | recovery of the NIR fluorescence signal [2] [fold]
1 | B1 | 456 | –
2 | B2 | – | > 20
